Key:
[1] = biological target: activated factor VIII (FVIIIa): Recombinate Antihemophilic Factor activated with thrombin (UniProt P00451)
factor X (FX) = factor X (FX) (UniProt P00742)
Chain of UniProt P00742 (P00742 41-488): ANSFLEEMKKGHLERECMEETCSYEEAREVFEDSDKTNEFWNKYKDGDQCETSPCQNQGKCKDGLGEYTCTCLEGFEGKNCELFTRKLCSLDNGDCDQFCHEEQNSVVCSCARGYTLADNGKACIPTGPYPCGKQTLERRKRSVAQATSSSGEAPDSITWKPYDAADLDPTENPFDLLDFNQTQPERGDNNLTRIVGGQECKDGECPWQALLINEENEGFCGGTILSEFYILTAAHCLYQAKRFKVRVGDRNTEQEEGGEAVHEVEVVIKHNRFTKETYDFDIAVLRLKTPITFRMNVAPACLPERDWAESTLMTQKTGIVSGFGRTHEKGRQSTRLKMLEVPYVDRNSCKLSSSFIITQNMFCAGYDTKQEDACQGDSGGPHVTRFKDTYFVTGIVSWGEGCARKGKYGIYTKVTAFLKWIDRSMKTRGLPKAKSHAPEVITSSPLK

Chain of FIX wild type (recombinant, full length, HEK 293), activated form (chain): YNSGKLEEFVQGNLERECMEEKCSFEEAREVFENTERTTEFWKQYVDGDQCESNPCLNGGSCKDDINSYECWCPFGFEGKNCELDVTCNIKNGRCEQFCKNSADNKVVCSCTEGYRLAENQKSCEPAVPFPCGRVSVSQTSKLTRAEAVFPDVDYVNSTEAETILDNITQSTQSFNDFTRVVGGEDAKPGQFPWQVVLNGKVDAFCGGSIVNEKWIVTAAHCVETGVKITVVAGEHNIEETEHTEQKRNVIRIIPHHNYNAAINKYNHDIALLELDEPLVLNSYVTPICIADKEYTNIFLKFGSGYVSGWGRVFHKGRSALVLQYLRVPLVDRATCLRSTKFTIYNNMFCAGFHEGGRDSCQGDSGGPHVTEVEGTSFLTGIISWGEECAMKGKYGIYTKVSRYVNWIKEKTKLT
Chain of plasma derived FIX (pdFIX), activated form pdFIXa (chain): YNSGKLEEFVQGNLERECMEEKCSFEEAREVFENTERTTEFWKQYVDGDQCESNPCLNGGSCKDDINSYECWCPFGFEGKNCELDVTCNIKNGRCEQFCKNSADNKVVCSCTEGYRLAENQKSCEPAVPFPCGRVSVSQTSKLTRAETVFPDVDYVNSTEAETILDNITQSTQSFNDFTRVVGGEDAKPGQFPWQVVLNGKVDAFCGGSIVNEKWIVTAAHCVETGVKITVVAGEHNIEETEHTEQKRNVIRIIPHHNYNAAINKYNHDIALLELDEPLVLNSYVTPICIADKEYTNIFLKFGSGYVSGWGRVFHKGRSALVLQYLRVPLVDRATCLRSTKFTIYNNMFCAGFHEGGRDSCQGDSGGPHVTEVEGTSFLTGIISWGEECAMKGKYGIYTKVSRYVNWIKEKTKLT
Chain of UniProt P00451 (P00451 other isoform, or with tags, fused parts or gaps): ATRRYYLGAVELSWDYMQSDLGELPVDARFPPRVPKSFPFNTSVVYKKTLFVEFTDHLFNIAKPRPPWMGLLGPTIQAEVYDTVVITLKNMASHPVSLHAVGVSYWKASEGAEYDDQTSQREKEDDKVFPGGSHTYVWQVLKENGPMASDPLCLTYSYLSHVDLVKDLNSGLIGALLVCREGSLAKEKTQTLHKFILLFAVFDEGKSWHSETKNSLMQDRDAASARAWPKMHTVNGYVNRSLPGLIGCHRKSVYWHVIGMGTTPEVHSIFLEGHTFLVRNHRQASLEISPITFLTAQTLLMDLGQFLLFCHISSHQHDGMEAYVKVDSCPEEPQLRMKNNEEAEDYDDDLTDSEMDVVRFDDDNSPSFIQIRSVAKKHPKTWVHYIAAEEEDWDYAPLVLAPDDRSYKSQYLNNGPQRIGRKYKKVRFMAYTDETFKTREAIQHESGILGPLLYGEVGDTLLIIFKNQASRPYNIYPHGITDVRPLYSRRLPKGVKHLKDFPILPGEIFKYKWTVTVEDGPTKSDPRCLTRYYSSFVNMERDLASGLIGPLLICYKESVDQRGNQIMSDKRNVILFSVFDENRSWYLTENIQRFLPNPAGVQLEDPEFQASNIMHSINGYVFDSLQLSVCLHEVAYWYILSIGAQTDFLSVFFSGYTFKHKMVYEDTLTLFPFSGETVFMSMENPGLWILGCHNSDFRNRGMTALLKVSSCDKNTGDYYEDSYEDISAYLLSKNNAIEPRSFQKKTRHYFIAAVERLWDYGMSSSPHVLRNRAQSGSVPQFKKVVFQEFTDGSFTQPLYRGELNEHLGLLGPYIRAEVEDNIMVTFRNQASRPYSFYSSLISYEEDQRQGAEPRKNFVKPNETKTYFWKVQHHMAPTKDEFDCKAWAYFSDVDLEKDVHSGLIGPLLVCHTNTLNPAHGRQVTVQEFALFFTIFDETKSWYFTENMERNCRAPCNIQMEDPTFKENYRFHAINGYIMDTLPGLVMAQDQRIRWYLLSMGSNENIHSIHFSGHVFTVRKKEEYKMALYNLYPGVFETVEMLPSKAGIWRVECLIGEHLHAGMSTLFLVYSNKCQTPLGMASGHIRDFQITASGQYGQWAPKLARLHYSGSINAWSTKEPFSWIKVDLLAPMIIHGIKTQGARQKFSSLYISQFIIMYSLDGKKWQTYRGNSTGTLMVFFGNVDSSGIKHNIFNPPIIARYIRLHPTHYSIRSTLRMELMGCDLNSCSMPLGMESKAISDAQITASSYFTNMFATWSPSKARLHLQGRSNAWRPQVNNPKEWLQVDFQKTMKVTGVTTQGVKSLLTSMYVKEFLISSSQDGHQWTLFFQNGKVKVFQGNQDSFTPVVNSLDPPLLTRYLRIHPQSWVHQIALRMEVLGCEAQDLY

Row | Substance | ratio kcat/KM +/- FVIIIa (FX activation) [1] | KM (nM), FX activation with FVIIIa (factor X (FX)) | KM (nM), FX activation without FVIIIa (factor X (FX)) | kcat (10^-3 min^-1), FX activation without FVIIIa (factor X (FX)) | kcat (min^-1), FX activation with FVIIIa (factor X (FX)) | kcat/KM (10^-6 nM^-1 min^-1), FX activation without FVIIIa (factor X (FX)) | kcat/KM (nM^-1 min^-1), FX activation with FVIIIa (factor X (FX)) | rate of FX activation against pdFIXa (factor X (FX))
1 | FIX wild type (recombinant, full length, HEK 293), activated form | 36,695 | 11 nM | 68 nM | 0.000283 s⁻¹ | 102 min⁻¹ | 4200 M⁻¹ s⁻¹ | 1.5e+08 M⁻¹ s⁻¹ | FIX-WT and FIX-Y94F/K98T/Y177F activated FX at the same rate as pdFIXa
2 | plasma derived FIX (pdFIX), activated form pdFIXa | 52,430 | 13 nM | 65 nM | 0.000217 s⁻¹ | 131 min⁻¹ | 3250 M⁻¹ s⁻¹ | 1.67e+08 M⁻¹ s⁻¹ | –
